Data taken from patent US20250011379.

Assays:
human C4b = human C4b (UniProt P0C0L5)
soluble human C3b = soluble human C3b (UniProt P01024)
Sequence of soluble human C3b (P01024 whole entry, looked up, tested part not stated): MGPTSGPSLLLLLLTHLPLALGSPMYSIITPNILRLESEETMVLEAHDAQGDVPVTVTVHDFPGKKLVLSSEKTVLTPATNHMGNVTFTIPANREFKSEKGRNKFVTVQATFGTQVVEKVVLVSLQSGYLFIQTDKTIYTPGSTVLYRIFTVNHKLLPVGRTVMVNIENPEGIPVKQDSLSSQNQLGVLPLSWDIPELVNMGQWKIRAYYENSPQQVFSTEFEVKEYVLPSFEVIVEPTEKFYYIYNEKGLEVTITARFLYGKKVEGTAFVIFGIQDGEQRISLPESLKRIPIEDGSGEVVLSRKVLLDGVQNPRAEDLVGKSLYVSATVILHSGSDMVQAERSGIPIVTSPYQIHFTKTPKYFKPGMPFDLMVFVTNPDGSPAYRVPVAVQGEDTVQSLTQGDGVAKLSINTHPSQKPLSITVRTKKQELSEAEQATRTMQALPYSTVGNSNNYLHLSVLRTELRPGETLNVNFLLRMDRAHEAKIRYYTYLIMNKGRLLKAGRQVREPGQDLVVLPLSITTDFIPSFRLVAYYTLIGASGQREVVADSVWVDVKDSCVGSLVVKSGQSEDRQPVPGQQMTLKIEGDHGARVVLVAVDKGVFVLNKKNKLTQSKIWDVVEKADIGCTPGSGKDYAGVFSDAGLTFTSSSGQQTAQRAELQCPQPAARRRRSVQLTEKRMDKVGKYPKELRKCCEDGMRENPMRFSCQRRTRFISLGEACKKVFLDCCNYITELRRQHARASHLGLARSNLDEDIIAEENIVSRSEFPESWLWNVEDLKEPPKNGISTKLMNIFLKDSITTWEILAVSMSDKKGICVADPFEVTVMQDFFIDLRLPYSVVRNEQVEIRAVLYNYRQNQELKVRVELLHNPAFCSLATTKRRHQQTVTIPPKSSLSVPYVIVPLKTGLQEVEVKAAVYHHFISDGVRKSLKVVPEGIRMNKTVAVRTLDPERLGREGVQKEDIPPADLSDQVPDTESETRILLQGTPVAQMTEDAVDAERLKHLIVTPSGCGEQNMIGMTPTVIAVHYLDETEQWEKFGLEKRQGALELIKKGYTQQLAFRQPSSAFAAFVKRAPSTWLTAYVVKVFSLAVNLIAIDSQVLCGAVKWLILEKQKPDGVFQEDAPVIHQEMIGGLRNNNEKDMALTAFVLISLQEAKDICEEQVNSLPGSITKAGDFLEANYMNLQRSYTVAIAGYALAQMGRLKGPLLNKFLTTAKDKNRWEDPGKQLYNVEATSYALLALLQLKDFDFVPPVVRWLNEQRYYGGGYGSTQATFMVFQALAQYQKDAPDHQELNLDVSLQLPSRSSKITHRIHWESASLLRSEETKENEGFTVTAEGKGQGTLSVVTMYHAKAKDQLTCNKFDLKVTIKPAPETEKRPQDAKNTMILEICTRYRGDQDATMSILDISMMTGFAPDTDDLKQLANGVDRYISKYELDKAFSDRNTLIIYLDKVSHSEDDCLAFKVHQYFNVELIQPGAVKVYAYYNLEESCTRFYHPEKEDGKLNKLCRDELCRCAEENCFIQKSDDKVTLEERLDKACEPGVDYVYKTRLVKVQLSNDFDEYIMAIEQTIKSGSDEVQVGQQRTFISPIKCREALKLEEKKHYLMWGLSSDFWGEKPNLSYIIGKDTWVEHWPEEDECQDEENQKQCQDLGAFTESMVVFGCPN

Sequence of human C4b (P0C0L5 whole entry, looked up): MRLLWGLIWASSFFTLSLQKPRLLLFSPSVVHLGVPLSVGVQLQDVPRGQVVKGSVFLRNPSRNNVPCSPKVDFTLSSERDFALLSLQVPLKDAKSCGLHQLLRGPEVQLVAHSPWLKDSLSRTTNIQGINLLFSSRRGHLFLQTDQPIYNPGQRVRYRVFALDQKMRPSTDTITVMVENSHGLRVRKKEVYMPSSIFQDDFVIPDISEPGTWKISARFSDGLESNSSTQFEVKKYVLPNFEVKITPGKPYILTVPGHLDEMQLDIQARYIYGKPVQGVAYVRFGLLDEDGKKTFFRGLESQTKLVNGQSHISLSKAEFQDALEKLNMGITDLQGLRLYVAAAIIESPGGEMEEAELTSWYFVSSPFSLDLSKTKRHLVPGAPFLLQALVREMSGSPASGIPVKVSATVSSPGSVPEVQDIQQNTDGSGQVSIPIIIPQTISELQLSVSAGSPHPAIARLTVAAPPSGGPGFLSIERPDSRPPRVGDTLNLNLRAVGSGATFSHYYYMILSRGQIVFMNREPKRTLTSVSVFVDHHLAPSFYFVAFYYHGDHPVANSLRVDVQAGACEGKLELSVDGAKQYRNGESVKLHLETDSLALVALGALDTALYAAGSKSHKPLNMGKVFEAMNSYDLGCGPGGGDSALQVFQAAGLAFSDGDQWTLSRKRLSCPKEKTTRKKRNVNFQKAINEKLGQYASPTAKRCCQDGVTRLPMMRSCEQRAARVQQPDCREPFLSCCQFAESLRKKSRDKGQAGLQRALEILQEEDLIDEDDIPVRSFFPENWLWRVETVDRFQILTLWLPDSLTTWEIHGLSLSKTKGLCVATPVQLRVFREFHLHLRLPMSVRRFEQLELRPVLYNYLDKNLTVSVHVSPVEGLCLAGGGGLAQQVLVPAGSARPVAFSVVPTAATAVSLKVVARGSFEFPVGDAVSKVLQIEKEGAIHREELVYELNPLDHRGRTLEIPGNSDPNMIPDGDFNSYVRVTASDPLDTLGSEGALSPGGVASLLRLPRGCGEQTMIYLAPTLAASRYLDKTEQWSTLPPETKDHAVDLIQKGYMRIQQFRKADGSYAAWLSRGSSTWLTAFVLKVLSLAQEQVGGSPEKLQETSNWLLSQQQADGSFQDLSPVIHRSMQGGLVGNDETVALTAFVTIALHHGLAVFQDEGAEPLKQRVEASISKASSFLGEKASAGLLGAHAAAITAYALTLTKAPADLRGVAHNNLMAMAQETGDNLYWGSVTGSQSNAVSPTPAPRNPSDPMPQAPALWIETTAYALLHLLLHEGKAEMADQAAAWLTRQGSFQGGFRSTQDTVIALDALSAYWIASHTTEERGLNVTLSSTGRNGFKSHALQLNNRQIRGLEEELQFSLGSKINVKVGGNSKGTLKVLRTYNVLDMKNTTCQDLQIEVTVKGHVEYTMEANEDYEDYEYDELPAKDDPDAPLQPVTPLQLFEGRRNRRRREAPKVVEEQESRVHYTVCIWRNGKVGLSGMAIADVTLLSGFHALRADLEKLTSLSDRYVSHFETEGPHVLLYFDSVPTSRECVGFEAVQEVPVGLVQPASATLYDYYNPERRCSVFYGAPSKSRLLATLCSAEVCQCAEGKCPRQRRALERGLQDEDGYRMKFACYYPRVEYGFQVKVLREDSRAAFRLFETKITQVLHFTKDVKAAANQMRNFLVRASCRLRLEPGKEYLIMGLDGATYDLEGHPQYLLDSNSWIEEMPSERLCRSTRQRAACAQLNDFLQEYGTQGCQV
Sequence of Const. No. 12: HSA-GGSSGG-hCFI; Δ(Y496; D497) (chain): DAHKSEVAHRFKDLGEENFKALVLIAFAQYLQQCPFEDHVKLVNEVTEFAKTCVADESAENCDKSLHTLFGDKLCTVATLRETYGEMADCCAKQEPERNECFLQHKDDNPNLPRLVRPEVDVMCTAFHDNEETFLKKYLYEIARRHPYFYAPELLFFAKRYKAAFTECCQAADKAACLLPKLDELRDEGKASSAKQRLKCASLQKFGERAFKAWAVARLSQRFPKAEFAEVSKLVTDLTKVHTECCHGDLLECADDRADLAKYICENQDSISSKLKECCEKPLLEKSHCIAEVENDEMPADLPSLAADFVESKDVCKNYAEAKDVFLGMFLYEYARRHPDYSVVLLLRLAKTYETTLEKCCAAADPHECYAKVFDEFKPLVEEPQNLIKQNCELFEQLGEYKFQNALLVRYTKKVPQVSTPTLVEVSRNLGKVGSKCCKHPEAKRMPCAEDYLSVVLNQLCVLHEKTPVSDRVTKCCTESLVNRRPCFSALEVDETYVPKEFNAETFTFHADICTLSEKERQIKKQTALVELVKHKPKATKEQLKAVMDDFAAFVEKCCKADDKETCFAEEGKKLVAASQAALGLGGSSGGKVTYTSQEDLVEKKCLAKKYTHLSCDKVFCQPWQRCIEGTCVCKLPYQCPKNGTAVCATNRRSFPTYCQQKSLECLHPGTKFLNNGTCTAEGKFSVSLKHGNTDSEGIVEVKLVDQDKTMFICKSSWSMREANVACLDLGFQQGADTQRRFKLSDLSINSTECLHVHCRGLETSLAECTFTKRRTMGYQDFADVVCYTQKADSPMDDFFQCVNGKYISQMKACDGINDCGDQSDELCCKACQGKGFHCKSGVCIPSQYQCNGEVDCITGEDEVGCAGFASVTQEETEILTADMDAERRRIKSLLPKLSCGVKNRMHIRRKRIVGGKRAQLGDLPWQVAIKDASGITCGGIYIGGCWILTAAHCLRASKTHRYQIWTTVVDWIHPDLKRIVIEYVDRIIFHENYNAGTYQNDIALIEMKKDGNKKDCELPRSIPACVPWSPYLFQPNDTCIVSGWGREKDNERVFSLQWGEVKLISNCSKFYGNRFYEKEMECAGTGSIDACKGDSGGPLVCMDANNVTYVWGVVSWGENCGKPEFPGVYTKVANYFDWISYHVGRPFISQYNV

Row | Substance | C4c ref fold (human C4b) [fold] | iC3b ref fold (soluble human C3b) [fold]
1 | Const. No. 33: HSA-GGSSGG-hCFI; H554F | 0.55 | 1
2 | Const. No. 31: HSA-GGSSGG-hCFI; N402K | 1.14 | 1.53
3 | Const. No. 9: HSA-GGSSGG-hCFI; P433F | 0.05 | 0.07
4 | Const. No. 19: HSA-GGSSGG-hCFI; S499A; I500K | -0.05 | 0.02
5 | Const. No. 80: HSA-GGSSGG-hCFI; Δ(1-KVTYTS-6)(SEQ ID NO: 35) > RSPSASDLP (SEQ ID NO: 36) | 3.07 | 0.91
6 | Const. No. 24: HSA-GGSSGG-hCFI; R62L | 0.59 | 0.19
7 | Const. No. 27: HSA-GGSSGG-hCFI; E401R | 2.93 | 2.12
8 | Const. No. 40: HSA-GGSSGG-hCFI; T59E | 2.17 | 0.68
9 | Const. No. 57: HSA-GGSSGG-hCFI; D395A; E416A | 0.06 | 0.76
10 | Const. No. 89: HSA-GGSSGG-hCFI; T377G; E457G; N531G-GGSSGG-hCR1; CCP15; CCP16; CCP17; hFH; CCP4-GGGGGGGGGGGG-hFH; CCP19; CCP20 | 3.21 | 0.05
11 | Const. No. 12: HSA-GGSSGG-hCFI; Δ(Y496; D497) | 0.9 | 0.18
12 | Const. No. 73: HSA-GGSSGGSSGG-Chimp CFI | -0.03 | 0.08
13 | Const. No. 55: HSA-GGSSGG-hCFI; D395R | 1.38 | 1.85
14 | Const. No. 91: HSA-GGSSGG-hCFI; T377A; E457G; N531G | 4.59 | 1.7
15 | Const. No. 75: HSA-GGSSGGSSGG-Alligator CFI | 0.12 | -0.03
16 | Const. No. 39: HSA-GGSSGG-hCFI; A55P | 2.83 | 1.1
17 | Const. No. 71: HSA-GGSSGGSSGG-Gorilla CFI | 0.09 | 0.07
18 | Const. No. 46: HSA-GGSSGG-hCFI; R484K | 0.76 | 1.21
19 | Const. No. 54: HSA-GGSSGG-hCFI; D395K | 1.61 | 2.06
20 | Const. No. 64: HSA-GGSSGG-hCFI-GGSSGG-hCR1; CCP8; CCP9; CCP10 | 4.11 | 0.06
21 | Const. No. 43: HSA-GGSSGG-hCFI; Δ(275-CAGFASVAQE-284)(SEQ ID NO: 31) > CEEDRQQNIPKGLARSAQGEAEIETE (SEQ ID NO: 32) | 1.54 | 0.89
22 | Const. No. 53: HSA-GGSSGG-hCFI; D395G | 0.8 | 1.52

Row | Substance | C4c ref fold (human C4b) [fold] | iC3b ref fold (soluble human C3b) [fold]
23 | Const. No. 20: HSA-GGSSGG-hCFI; T495F; Y496L; S499G; I500K | 0.05 | 0
24 | Const. No. 26: HSA-GGSSGG-hCFI; E401K | 1.92 | 2.37
25 | Const. No. 28: HSA-GGSSGG-hCFI; E401A | 0.86 | 1.87
26 | Const. No. 7: HSA-GGSSGG-hCFI; P433A | 0.81 | 0.8
27 | Const. No. 38: HSA-GGSSGG-hCFI; N52A | 2.93 | 0.72
28 | Const. No. 8: HSA-GGSSGG-hCFI; P433G | 0.39 | 0.14
29 | Const. No. 17: HSA-GGSSGG-hCFI; Y496L | 1.54 | 0.44
30 | Const. No. 16: HSA-GGSSGG-hCFI; S499V | 1.24 | 0.18
31 | Const. No. 51: HSA-GGSSGG-hCFI; E416R | 1.17 | 1.87
32 | Const. No. 11: HSA-GGSSGG-hCFI; Δ(D497) | -0.02 | -0.01
33 | Const. No. 30: HSA-GGSSGG-hCFI; N402G | 0.73 | 1.44
34 | Const. No. 29: HSA-GGSSGG-hCFI; E401F | 0.5 | 1.64
35 | Const. No. 59: HSA-GGSSGG-hCFI; N402D | 1.66 | 0.74
36 | Const. No. 77: HSA-GGSSGG-hCFI; H383K; R388Q; E392Q; Y393T; K419M | 3.81 | 1.21
37 | Const. No. 14: HSA-GGSSGG-hCFI; S499A | 0.45 | 1.36
38 | Const. No. 10: HSA-GGSSGG-hCFI; Δ(Y496) | 0.02 | 0.03
39 | Const. No. 41: HSA-GGSSGG-hCFI; L73F | 2.36 | 0.9
40 | Const. No. 76: HSA-GGSSGG-hCFI; H383K; D385N; K387S; R388Q; E392Q; Y393T; D395K; K419M; D420H; G421T; N422G; D425E | 4.46 | 2.11
41 | Const. No. 93: HSA-GGSSGG-hCFI; T377A | 2.36 | 1.09
42 | Const. No. 44: HSA-GGSSGG-hCFI; Δ(275-CAGFASVAQE-284)(SEQ ID NO: 31) > CEEDRQQNIPKGLARSAQGEAEIETE (SEQ ID NO: 32) + GGSSGG (SEQ ID NO: 6) + CR1(ccp15-17) | 3.47 | 0.03
43 | Const. No. 42: HSA-GGSSGG-hCFI; L73D | 2.33 | 0.08
44 | Const. No. 67: HSA-GGSSGG-hCFI-GGSSGG-hCR1; CCP1; CCP2; CCP3; CCP4 | 3.2 | -0.01

Row | Substance | C4c ref fold (human C4b) [fold] | iC3b ref fold (soluble human C3b) [fold]
45 | Const. No. 52: HSA-GGSSGG-hCFI; D395A | 0.78 | 1.55
46 | Const. No. 92: HSA-GGSSGG-hCFI; N422A | 1.52 | 0.72
47 | Const. No. 34: HSA-GGSSGG-hCFI; H554K | 2.62 | 2.11
48 | Const. No. 1: HSA-GGSSGG-hCFI; F559W | 1.08 | 1.39
49 | Const. No. 18: HSA-GGSSGG-hCFI; S499G; I500K | 0.08 | 0.16
50 | Const. No. 68: HSA-GGSSGG-hCFI-GGSSGG-hCR1; CCP1; CCP2; CCP3-GGSSGG-hCR1; CCP15; CCP16; CCP17 | 3.75 | 0.06
51 | Const. No. 36: HSA-GGSSGG-hCFI; A342R | 2.08 | 1.73
52 | Const. No. 60: HSA-GGSSGG-hCFI; K368D | 1.39 | 0.03
53 | Const. No. 15: HSA-GGSSGG-hCFI; S499K | 1.98 | 0.67
54 | Const. No. 70: HSA-GGSSGGSSGG-Rat CFI | 4.12 | 0.94
55 | Const. No. 22: HSA-GGSSGG-hCFI; R62A | 1.07 | 0.23
56 | Const. No. 95: HSA linked with CFI (CFI-HSA), wild type | 1 | 1
57 | Const. No. 78: HSA-GGSSGG-hCFI; K51D; T59E; R61D | -0.24 | 0
58 | Const. No. 35: HSA-GGSSGG-hCFI; R371E | 2.02 | 0.04
59 | Const. No. 37: HSA-GGSSGG-hCFI; K51R; N52A; A55P; T59M; R61G; F64Y | 3.59 | 1.12
60 | Const. No. 21: HSA-GGSSGG-hCFI; K423R | 1.44 | 0.55
61 | Const. No. 79: HSA-GGSSGG-hCFI; Q69H; L73F; G79E; T80I; L83S; N84H | 3.36 | 1.63
62 | Const. No. 3: HSA-GGSSGG-hCFI; L307F | 3.48 | 1.01
63 | Const. No. 23: HSA-GGSSGG-hCFI; R62E | 0.1 | 0.04
64 | Const. No. 58: HSA-GGSSGG-hCFI; D395A; E416A; D425A | 0.06 | 0.77
65 | Const. No. 2: HSA-GGSSGG-hCFI; F559H | 0.58 | 1.73
66 | Const. No. 74: HSA-GGSSGGSSGG-Bovine CFI | 2.19 | 1.67
